According to publication PMC5812716 (2018):
Like-named read-outs stand apart in the source and are kept apart here.

Tests used:
[1] = target: T1, MukB (E. coli, UniProt P22523 1-1486)
T1 chain: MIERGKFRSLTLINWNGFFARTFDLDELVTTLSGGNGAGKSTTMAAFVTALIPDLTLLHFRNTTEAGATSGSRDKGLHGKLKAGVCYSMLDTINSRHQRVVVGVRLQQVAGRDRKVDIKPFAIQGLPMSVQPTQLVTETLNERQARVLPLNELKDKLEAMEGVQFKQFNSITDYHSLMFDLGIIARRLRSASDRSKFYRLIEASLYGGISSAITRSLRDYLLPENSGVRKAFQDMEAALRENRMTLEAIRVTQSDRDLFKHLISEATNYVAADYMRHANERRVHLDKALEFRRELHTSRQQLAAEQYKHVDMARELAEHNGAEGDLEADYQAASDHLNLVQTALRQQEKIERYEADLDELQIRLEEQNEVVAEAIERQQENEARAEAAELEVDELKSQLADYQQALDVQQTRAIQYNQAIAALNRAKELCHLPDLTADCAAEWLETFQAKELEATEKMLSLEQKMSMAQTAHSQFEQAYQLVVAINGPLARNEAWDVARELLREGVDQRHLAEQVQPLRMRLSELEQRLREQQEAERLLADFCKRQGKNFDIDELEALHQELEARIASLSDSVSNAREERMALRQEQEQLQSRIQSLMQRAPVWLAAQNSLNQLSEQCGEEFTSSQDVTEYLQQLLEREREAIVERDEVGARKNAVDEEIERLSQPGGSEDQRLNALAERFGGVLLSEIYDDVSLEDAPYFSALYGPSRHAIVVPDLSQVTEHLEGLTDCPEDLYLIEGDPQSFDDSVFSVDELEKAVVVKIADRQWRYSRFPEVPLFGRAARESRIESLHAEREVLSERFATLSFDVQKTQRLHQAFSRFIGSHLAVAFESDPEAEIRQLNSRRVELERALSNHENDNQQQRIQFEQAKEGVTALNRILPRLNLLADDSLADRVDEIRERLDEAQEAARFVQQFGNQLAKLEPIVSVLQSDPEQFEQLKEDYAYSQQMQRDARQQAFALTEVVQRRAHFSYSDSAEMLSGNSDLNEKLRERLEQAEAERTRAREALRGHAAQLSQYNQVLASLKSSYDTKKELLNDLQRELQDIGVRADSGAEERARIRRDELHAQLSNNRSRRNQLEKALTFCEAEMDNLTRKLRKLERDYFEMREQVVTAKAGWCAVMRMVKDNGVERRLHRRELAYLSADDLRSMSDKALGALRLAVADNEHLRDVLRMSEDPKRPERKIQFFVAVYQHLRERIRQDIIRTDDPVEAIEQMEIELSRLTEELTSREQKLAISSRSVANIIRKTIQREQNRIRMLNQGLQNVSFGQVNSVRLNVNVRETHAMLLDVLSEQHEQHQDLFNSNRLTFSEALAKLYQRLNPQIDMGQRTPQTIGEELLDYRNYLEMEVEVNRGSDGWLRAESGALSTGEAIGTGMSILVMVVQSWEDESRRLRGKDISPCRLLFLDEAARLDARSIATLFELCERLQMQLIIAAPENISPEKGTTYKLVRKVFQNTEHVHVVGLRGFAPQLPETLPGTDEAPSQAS

[2] = target: T1, MukB; test: FP

B1: Cy5 labelled FN2 (domain or fragment)
chain: MSEFSQTVPELVAWARKNDFSISLPVDRLSFLLAVATLNGERLDGEMSEGELVDAFRHVSDAFEQTSETIGVRANNAINDMVRQRLLNRFTSEQAEGNAIYRLTPLGIGITDYYIRQREFSTLRLSMQLSIVAGELKRAADAAEEGGDEFHWHRNVYAPLKYSVAEIFDSIDLTQRLMDEQQQQVKDDIAQLLNKDWRAAISSCELLLSETSGTLRELQDTLEAAGDKLQANLLRIQDATMTHDDLHFVDRLVFDLQSKLDRIISWGQQSIDLWIGYDRHVHKFIRT
modifications: Cy5 label (site not stated)
B1 was tested. Which Kd [1] did it give?
The Kd was 26 nM.

B2: Cy5 labelled FN10 (domain or fragment)
chain: MSEFSQTVPELVAWARKNDFSISLPVDRLSFLLAVATLNGERLDGEMSEGELVDAFRHVSDAFEQTSETIGVRANNAINDMVRQRLLNRFTSEQAEGNAIYRLTPLGIGITDYYIRQREFSTLRLSMQLSIVAGELKRAADAAEEGGDEFHWHRNVYAPLKYSVAEIFDSIDLTQRLMDEQQQQVKDDIAQLLNKDWRAAISSCELLLSETSGTLRELQDTLEAAGDKLQANLLRIQDATMTHDDLHFVDRLVFDLQSKLDRIISWGQQSIDLWIGYDRHVHKFIRTAIDMDKNRVFAQRLRQSVQTYFDEPWALTYANADRLLDMRDEEMALRDEEVTGELPED
modifications: Cy5 label (site not stated)
How did the Kd [1] turn out when B2 was run?
Its Kd is 10 nM.

B3: Cy5 labelled FC2 (domain or fragment)
chain: AIDMDKNRVFAQRLRQSVQTYFDEPWALTYANADRLLDMRDEEMALRDEEVTGELPEDLEYEEFNEIREQLAAIIEEQLAVYKTRQVPLDLGLVVREYLSQYPRARHFDVARIVIDQAVRLGVAQADFTGLPAKWQPINDYGAKVQAHVIDKY
modifications: Cy5 label (site not stated)
For B3, which Kd [2] is on record?
Its Kd is 23 nM.

B4: Cy5 labelled FN3 (domain or fragment)
chain: REFSTLRLSMQLSIVAGELKRAADAAEEGGDEFHWHRNVYAPLKYSVAEIFDSIDLTQRLMDEQQQQVKDDIAQLLNKDWRAAISSCELLLSETSGTLRELQDTLEAAGDKLQANLLRIQDATMTHDDLHFVDRLVFDLQSKLDRIISWGQQSIDLWIGYDRHVHKFIRT
modifications: Cy5 label (site not stated)
B4 was tested. Which Kd [2] did it give?
Its Kd is 21 nM.
